T1: human TNFR2 extracellular domain with C-terminal 10×His tag (human, UniProt P20333 23-257)
T1 construct: also called huTNFR2-His; His-tag-huTNFR2
T1 sequence: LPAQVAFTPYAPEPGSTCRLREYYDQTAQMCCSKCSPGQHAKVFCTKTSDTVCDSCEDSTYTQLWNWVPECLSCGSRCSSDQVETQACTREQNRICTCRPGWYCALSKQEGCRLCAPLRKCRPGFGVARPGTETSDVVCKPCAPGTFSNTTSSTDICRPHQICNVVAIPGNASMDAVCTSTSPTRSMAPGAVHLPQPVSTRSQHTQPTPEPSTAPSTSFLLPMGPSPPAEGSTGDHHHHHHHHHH

T2: human TNFR2 expressed on cells (Expi293 cells stably expressing huTNFR2) (human, UniProt P20333 23-461)
T2 construct: whole, on cells; Also used here as the target of the Treg assay (native TNFR2 on human primary Treg cells); also called huTNFR2 expressed cells; Expi293-TNFR2 cells
T2 sequence (looked up): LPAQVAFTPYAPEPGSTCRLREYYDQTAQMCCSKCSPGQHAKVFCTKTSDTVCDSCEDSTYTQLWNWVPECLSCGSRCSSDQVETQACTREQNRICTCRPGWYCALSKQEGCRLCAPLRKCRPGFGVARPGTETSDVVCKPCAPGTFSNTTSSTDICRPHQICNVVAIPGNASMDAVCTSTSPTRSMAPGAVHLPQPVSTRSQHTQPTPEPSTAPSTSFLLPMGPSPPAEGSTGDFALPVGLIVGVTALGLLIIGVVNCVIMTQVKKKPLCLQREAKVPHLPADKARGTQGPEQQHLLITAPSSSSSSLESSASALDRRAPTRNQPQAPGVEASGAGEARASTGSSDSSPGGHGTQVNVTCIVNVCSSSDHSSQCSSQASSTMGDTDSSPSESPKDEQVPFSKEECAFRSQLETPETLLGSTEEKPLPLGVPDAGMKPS


Tests used:
[1] = molecular target: T1, human TNFR2 extracellular domain with …; assay: BLI (Octet RED96), antibody captured on AHC biosensor, His-tag-huTNFR2 in solution, 1:1 model
Experimental: (§1) The following kinetic assay was performed using anti-human IgG Fc capture (AHC) biosensors (ForteBio) in kinetics buffer (PBS, 0.1% Tween-20 and 1% bovine serum albumin): (a) antibody (2 μg/mL) for 300 sec, (b) baseline for 120 sec, (c) association with His-tag-huTNFR2 (2.5, 0.5 and 0 μg/mL) for 420 sec and (d) dissociation for 1200 sec. Data fitting and analysis was performed with Octet data analysis software 8.0 (ForteBio) using a 1:1 binding model after Savitzky-Golay filtering. The dissociation constant (Kd) was calculated as the ratio of Koff/Kon.

[2] = molecular target: T2, human TNFR2 expressed on cells (Expi293 …); assay: flow cytometry on Expi293 cells stably expressing huTNFR2, y axis TNFR2 binding (MFI)
Experimental: The coding sequence of huTNFR2 (Uniprot, P20333) was cloned into a lentiviral vector and the virus was packaged according to the instruction of the virus packaging kit (Lenti-X™ Packaging Single Shots, Cat #631275, Takada). The Expi293 cells were transduced with the recombinant virus and selected by puromycin. The cell line stably expressing huTNFR2 was incubated with anti-TNFR2 antibodies in PBS with 0.5% BSA, 1 mM EDTA, and 0.1% sodium azide (FACS buffer) for 30 minutes at 4° C. The cells were washed, and then incubated with 10 nM phycoerythrin (PE) conjugated anti-Human Fe Ab (Biolegend, cat #409304) for 20 minutes at 4° C. Cells were washed and then […] by flow cytometry with Attune (ThermoFisher Scientific). Data were analyzed with FlowJo software. Antibody binding is represented as median fluorescence intensity (MFI).
FACS based binding and blocking assays of humanized antibodies were performed as described above.

[3] = molecular target: T1, human TNFR2 extracellular domain with …; assay: BLI (Octet RED96), antibody captured on AHC biosensor, His-tagged TNFR2 in solution, 1:1 model
Experimental: as §1, with “0 μg/mL) and His-tag-cynoTNFR2 (2.5, 0.5 and 0 μg/mL) for 420” for “0 μg/mL) for 420”, “Savitzky-Golay filtering.” for “Savitzky-Golay filtering. The dissociation constant (Kd) was calculated as the ratio of Koff/Kon.”

| Binder | Kd [1] | koff [1] | kon [1] | EC50 (read off the curve) [2] | other results |
| --- | --- | --- | --- | --- | --- |
| SB1901-68 humanized anti-TNFR2 antibody (antibody, V domains shown) VH: QVQLVQSGAEVKKPGASVKVSCKASGYTFTDDYIDWVRQATGQGLEWIGEIYPGSGNTYYNEKFKGRVTMTRDTSISTAYMELSSLRSEDTAVYYCARSQVYGKIAMDHWGQGTLVTVSS VL: DIVMTQSPDSLAVSLGERATINCRASESVDNSGNSFMHWYQQKPGQPPKLLIYRASNLESGVPDRFSGSGSRTDFTLTISSLQAEDVAVYYCQQSKEDPYTFGQGTKVEIK | 1.95 nM | 0.000796 s⁻¹ | 408000 M⁻¹ s⁻¹ | – | – |
| SB1901-78 (antibody, V domains shown, humanized version of 51B5; also called SB1901-78 humanized anti-TNFR2 antibody) VH: QVQLVQSGAEVKKPGASVKVSCKASGYTFTDDYIDWVRQATGQGLEWIGEIYPGSGNTYYNEKFKGRVTMTADKSISTAYMELSSLRSEDTAVYYCARSQVYGKIAMDHWGQGTLVTVSS VL: DIVMTQSPDSLAVSLGERATINCRASESVDNSGNSFMHWYQQKPGQPPKLLIYRASNLESGVPDRFSGSGSRTDFTLTISSLQAEDVAVYYCQQSKEDPYTFGQGTKVEIK | – | – | – | ~0.6 nM | – |
| SB1901-80 humanized anti-TNFR2 antibody (antibody, V domains shown) VH: QVQLVQSGAEVKKPGASVKVSCKASGYTFTDDYIDWVRQAPGQGLEWIGEIYPGSGNTYYNEKFKGRVTMTRDTSTSTVYMELSSLRSEDTAVYYCARSQVYGKIAMDHWGQGTLVTVSS VL: DIVMTQSPDSLAVSLGERATINCRASESVDNSGNSFMHWYQQKPGQPPKLLIYRASNLESGVPDRFSGSGSRTDFTLTISSLQAEDVAVYYCQQSKEDPYTFGQGTKVEIK | 2.52 nM | 0.000937 s⁻¹ | 373000 M⁻¹ s⁻¹ | ~0.6 nM | – |
| 6F12 chimeric anti-TNFR2 antibody (antibody, V domains shown, Chimeric: mouse variable domains with human constant regions, made as recombinant IgG1) VH: QIQLVQSGPELKKPGETVKISCKTSGYTFTIYGMNWVKQAPGKGLKWMGWIHTYTGEPTYADDFKGRFVFSLETSDSTAYLQINNLKSEDMATYFCVRRERYGSFWGQGTLVTVSA VL: DIVLTQSPASLAVSLGQRATISCTASQSVDYGGVSYMNWYQQKPGQPPKLLIYGASNQESGIPVRFSGSGSGTDFTLNIHPVEEEDAATYYCQQSNEDPPTFGAGTKLELK | – | – | – | – | Kd [3]: 3.77 nM; koff [3]: 0.000886 s⁻¹; kon [3]: 239000 M⁻¹ s⁻¹ |

Now from value to binder, other results behind:

| Kd [1] | koff [1] | kon [1] | EC50 (read off the curve) [2] | Binder | other results |
| --- | --- | --- | --- | --- | --- |
| – | – | – | ~0.6 nM | SB1901-82 (antibody, V domains shown, humanized version of 51B5; also called SB1901-82 humanized anti-TNFR2 antibody) VH: QVQLVQSGAEVKKPGASVKVSCKASGYTFTDDYIDWVRQAPGQGLEWMGEIYPGSGNTYYNEKFKGRVTMTRDTSTSTVYMELSSLRSEDTAVYYCARSQVYGKIAMDHWGQGTLVTVSS VL: DIVMTQSPDSLAVSLGERATINCRASESVDNSGNSFMHWYQQKPGQPPKLLIYRASNLESGVPDRFSGSGSRTDFTLTISSLQAEDVAVYYCQQSKEDPYTFGQGTKVEIK | – |
| 1.25 nM | 0.000513 s⁻¹ | 410000 M⁻¹ s⁻¹ | – | SB1901-69 humanized anti-TNFR2 antibody (antibody, V domains shown) VH: QVQLVQSGAEVKKPGASVKVSCKASGYTFTDDYIDWVRQATGQGLEWMGEIYPGSGNTYYNEKFKGRVTMTRDKSISTAYMELSSLRSEDTAVYYCARSQVYGKIAMDHWGQGTLVTVSS VL: DIVMTQSPDSLAVSLGERATINCRASESVDNSGNSFMHWYQQKPGQPPKLLIYRASNLESGVPDRFSGSGAGTDFTLTISSLQAEDVAVYYCQQSKEDPYTFGQGTKVEIK | – |
| – | – | – | ~0.6 nM | SB1901-74 (antibody, V domains shown, humanized version of 51B5; also called SB1901-74 humanized anti-TNFR2 antibody) VH: QVQLVQSGAEVKKPGASVKVSCKASGYTFTDDYIDWVRQATGQGLEWIGEIYPGSGNTYYNEKFKGRVTMTRNTAISTAYMELSSLRSEDTAVYYCARSQVYGKIAMDHWGQGTLVTVSS VL: DIVMTQSPDSLAVSLGERATINCRASESVDNSGNSFMHWYQQKPGQPPKLLIYRASNLESGVPDRFSGSGSRTDFTLTISSLQAEDVAVYYCQQSKEDPYTFGQGTKVEIK | – |

— patent US20250011448A1 (STAIDSON BIOPHARMA, published 2025)
